What was measured:
[1] = Aminotransferase activity, forward direction (7-oxoheptanoate to 7-aminoheptanoate), pyruvate formation by RP-HPLC; assay type: biochemical; settings: cell free extract, 10 mM substrate, 10 mM L-alanine, 25° C., 4 h, against empty vector control, FIG. 49
Procedure: (§1) A sequence encoding an N-terminal His-tag was added to the genes from Chromobacterium violaceum, Pseudomonas syringae, Rhodobacter sphaeroides, and Vibrio Fluvialis encoding the aminotransferases of SEQ ID NOs: 116 (GenBank Accession No. AAQ59697.1), 126 (GenBank Accession No. AAY39893.1), 127 (GenBank Accession No. ABA81135.1), and 128 (GenBank Accession No. AEA39183.1), respectively such that N-terminal HIS tagged aminotransferases could be produced. Each of the resulting modified genes was cloned into a pET21a expression vector under control of the T7 promoter and each expression vector was transformed into a BL21 [DE3] E. coli host. The resulting recombinant E. coli strains were cultivated at 37° C. in a 250 mL shake flask culture containing 50 mL LB media and antibiotic selection pressure, with shaking at 230 rpm. Each culture was induced overnight at 16° C. using 1 mM IPTG.
The pellet from each induced shake flask culture was harvested via centrifugation. Each pellet was resuspended and lysed via sonication. […]
Enzyme activity in the forward direction (i.e., 7-oxoheptanoate to 7-aminoheptanoate) was confirmed for the aminotransferases of SEQ ID NO: 126 (GenBank Accession No. AAY39893.1), SEQ ID NO: 127 (GenBank Accession No. ABA81135.1), and SEQ ID NO: 128 (GenBank Accession No. AEA39183.1). […] The formation of pyruvate was quantified via RP-HPLC.

[2] = Aminotransferase activity, N7-acetyl-1,7-diaminoheptane to N7-acetyl-7-aminoheptanal, L-alanine formation by RP-HPLC; assay type: biochemical; settings: cell free extract, 10 mM substrate, 25° C., 4 h, against empty vector control, FIG. 51
Procedure: The activity of the N-terminal His-tagged aminotransferases of SEQ ID NOs: 116 (GenBank Accession No. AAQ59697.1), 119 (RefSeq Accession No. NP_417544.5), 125 (GenBank Accession No. AAGO8191.1), 126 (GenBank Accession No. AAY39893.1), 127 (GenBank Accession No. ABA81135.1), and 128 (GenBank Accession No. AEA39183.1) (see Example 6) for converting N7-acetyl-1,7-diaminoheptane to N7-acetyl-7-aminoheptanal was assayed using a buffer composed of a final concentration of 50 mM HEPES buffer (pH=7.5), 10 mM N7-acetyl-1,7-diaminoheptane, 10 mM pyruvate and 100 μM pyridoxyl 5′ phosphate. Each enzyme activity assay reaction was initiated by adding a cell free extract of the aminotransferases or the empty vector control to the assay buffer containing the N7-acetyl-1,7-diaminoheptane then incubated at 25° C. for 4 h, with shaking at 250 rpm. The formation of L-alanine was quantified via RP-HPLC.

[3] = Aminotransferase activity, reverse direction (7-aminoheptanoate to 7-oxoheptanoate), L-alanine formation by RP-HPLC; assay type: biochemical; settings: cell free extract, 10 mM substrate, 25° C., 4 h, against empty vector control, FIG. 48
Procedure: as §1
(§2) The pellet from each induced shake flask culture was harvested via centrifugation. Each pellet was resuspended and lysed via sonication. The cell debris was separated from the supernatant via centrifugation and the cell free extract was used immediately in enzyme activity assays.
Enzyme activity assays in the reverse direction (i.e., 7-aminoheptanoate to 7-oxoheptanoate) were performed in a buffer composed of a final concentration of 50 mM HEPES buffer (pH=7.5), 10 mM 7-aminoheptanoate, 10 mM pyruvate and 100 μM pyridoxyl 5′ phosphate. Each enzyme activity assay reaction was initiated by adding cell free extract of the aminotransferase gene product or the empty vector control to the assay buffer containing the 7-aminoheptanoate and incubated at 25° C. for 4 h, with shaking at 250 rpm. The formation of L-alanine from pyruvate was quantified via RP-HPLC.

[4] = Aminotransferase activity, heptane-1,7-diamine to 7-aminoheptanal, L-alanine formation by RP-HPLC; assay type: biochemical; settings: cell free extract, 10 mM substrate, 25° C., 4 h, against empty vector control, FIG. 50
Procedure: A sequence encoding an N-terminal His-tag was added to the Chromobacterium violaceum, Pseudomonas aeruginosa, Pseudomonas syringae, Rhodobacter sphaeroides, Escherichia coli, and Vibrio fluvialis genes encoding the aminotransferases of SEQ ID NOs: 116 (GenBank Accession No. AAQ59697.1), 119 (RefSeq Accession No. NP_417544.5), 125 (GenBank Accession No. AAGO8191.1), 126 (GenBank Accession No. AAY39893.1), 127 (GenBank Accession No. ABA81135.1), and 128 (GenBank Accession No. AEA39183.1), respectively such that N-terminal HIS tagged aminotransferases could be produced. The modified genes were cloned into a pET21a expression vector under the T7 promoter. Each expression vector was transformed into a BL21[DE3] E. coli host. Each resulting recombinant E. coli strain were cultivated at 37° C. in a 250 mL shake flask culture containing 50 mL LB media and antibiotic selection pressure, with shaking at 230 rpm. Each culture was induced overnight at 16° C. using 1 mM IPTG.
as §2
Enzyme activity assays in the reverse direction (i.e., heptane-1,7-diamine to 7-aminoheptanal) were performed in a buffer composed of a final concentration of 50 mM HEPES buffer (pH=7.5), 10 mM heptane-1,7-diamine, 10 mM pyruvate, and 100 μM pyridoxyl 5′ phosphate. Each enzyme activity assay reaction was initiated by adding cell free extract of the aminotransferase gene product or the empty vector control to the assay buffer containing the heptane-1,7-diamine and then incubated at 25° C. for 4 h, with shaking at 250 rpm. The formation of L-alanine was quantified via RP-HPLC.

[5] = In vivo aminotransferase activity screening, 7-aminoheptanoate by LC-MS; assay type: cell-based, Escherichia coli; settings: in vivo conversion of 7-oxoheptanoate to 7-aminoheptanoate, 120 aminotransferases screened
How it was run: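 Aminotransferase library expressed in E. coli T7 Express lysY/Iq co-expressing sfp, CAR_Srot and BioC, grown overnight at 37° C in rich media with 0.4 mM IPTG and 1 g/L monomethyl heptanedioate, heptanedioate or no acid. Culture supernatants analysed by LC-MS for 7-aminoheptanoate or its monomethyl ester.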

B1: SEQ ID NO: 128: Vibrio fluvialis aminotransferase, positive control of the in vivo screen (protein, listed as Vibrio fluvialis)
chain: MNKPQSWEARAETYSLYGFTDMPSLHQRGTVVVTHGEGPYIVDVNGRRYLDANSGLWNMVAGFDHKGLIDAAKAQYERFPGYHAFFGRMSDQTVMLSEKLVEVSPFDSGRVFYTNSGSEANDTMVKMLWFLHAAEGKPQKRKILTRWNAYHGVTAVSASMTGKPYNSVFGLPLPGFVHLTCPHYWRYGEEGETEEQFVARLARELEETIQREGADTIAGFFAEPVMGAGGVIPPAKGYFQAILPILRKYDIPVISDEVICGFGRTGNTWGCVTYDFTPDAIISSKNLTAGFFPMGAVILGPELSKRLETAIEAIEEFPHGFTASGHPVGCAIALKAIDVVMNEGLAENVRRLAPRFEERLKHIAERPNIGEYRGIGFMWALEAVKDKASKTPFDGNLSVSERIANTCTDLGLICRPLGQSVVLCPPFILTEAQMDEMFDKLEKALDKVFAEVA
- acceptance of 7-oxoheptanoate as substrate, forming 7-aminoheptanoate [1]: accepted 7-oxoheptanoate as a substrate
- acceptance of N7-acetyl-1,7-diaminoheptane as substrate, forming N7-acetyl-7-aminoheptanal [2]: accepted N7-acetyl-1,7-diaminoheptane as a substrate
- acceptance of 7-aminoheptanoate as substrate [3]: accepted 7-aminoheptanote as substrate
- acceptance of heptane-1,7-diamine as substrate, forming 7-aminoheptanal [4]: accepted heptane-1,7-diamine as substrate
- 7-aminoheptanoate yield compared to the positive control (F2XBU9) [5]: higher 7-aminoheptanoate yields
